This is an account of results in paper PMC3931302.

Test [1] addresses GST-HTTex1p 20QP (unexpanded HTT exon 1 with the proline-rich region). Kind of test: pull-down.
Test [2] concerns the target GST-HTTex1p 51QP (expanded HTT exon 1 with the proline-rich region). The test is described as follows: pull-down.

Consider “radiolabeled human PIAS1 (from UniProt O75925-1 1-651) (natural protein)”, for which the results for the percent of 35S-labeled PIAS1 bound in test [1] and in test [2] were 7.75% and 7%, respectively.
